Measurements as given in patent publication US20220040304A1, “A COMPOSITION FOR CANCER CELL DEATH AND ITS USE” (Industry-University Cooperation Foundation Hanyang …, priority 2018, published 2022).
“Also recorded” adds a separate entry of the source.

Columns and labels:
Type in all cases: cell-based, human
MCF-7 cells [1] = test: Cell death by SYTOX Green or EthD-1 and DAPI fluorescence (light irradiation or Co-h); conditions: MCF-7, protein 10 μM 24 hours; light 10 mW/cm^2 or Co-h 150 μM over time
Protocol: MCF-7 cells were seeded at 5×10^5 cells/mL in a 96-well plate (SPL Cell Culture Plate, 96 well (SPL, Cat #30096)), and cultured at 37° C. for 24 hours (overnight). After the culture for 24 hours, the cells were washed with FBS & Phenol red-free media (RPMI), and 100 μL of an FBS-free medium containing the purified protein (final concentration: 10 μM) was added, followed by reaction at 37° C. for 24 hours.
After the reaction for 24 hours, the cells were washed with FBS & Phenol red-free media (RPMI), and then 100 μL of FBS & Phenol red-free media (RPMI) was then added.
After the reaction, 8.1 μL of FMN (final concentration: 150 μM) was added. After reaction for 18 hours or 24 hours, the cells were washed with FBS & Phenol red-free media (RPMI), and 100 μL of FBS & Phenol red-free media (RPMI) containing FMN (final concentration: 150 μM) was added, followed by reaction at 37° C. for 1 hour.
After the irradiation with light at 10 mW/cm^2 over time, 50 μL of SYTOX Green (Thermo Scientific Inc., USA; final concentration: 261 nM) staining DNA of dead cells was added and reacted at 37° C. for 30 minutes, and 10 μL of DAPI (Vecta Labs., Australia) staining DNA of live cells was added and reacted for 5 minutes.
SYTOX Green or EthD-1 and DAPI fluorescence images were observed using a confocal microscope according to a protein type treated to cells and i) light irradiation time or ii) reaction time with a Co-h substrate, and cell death was confirmed by measuring relative fluorescence intensity at an excitation wavelength of 504 nm and an emission wavelength of 523 nm of SYTOX Green, and an excitation wavelength of 525 nm and an emission wavelength of 590 nm of EthD-1 using a plate reader.
Whether or not Cell death was observed by fluorescence microscopy using SYTOX Green (dead cell-specific dye, green) or EthD-1 (dead cell-specific dye, red) and DAPI (live cell-specific dye, blue).

MCF-7 cells [2] = test: MTT colorimetric change and cell viability after light irradiation; conditions: MCF-7, protein 10 μM 24 hours, light 10 mW/cm^2, no Co-h
Protocol: MCF-7 cells were seeded at 5×10^5 cells/mL in a 96-well plate (SPL Cell Culture Plate, 96 well (SPL, Cat #30096)), and cultured at 37° C. for 24 hours (overnight). After the overnight culture, the cells were washed with FBS & Phenol red-free media (RPMI, Well Gene., Korea, Cat #LM011-02), and 100 μL of an FBS-free medium containing the purified protein (final concentration: 10 μM) was added, followed by reaction at 37° C. for 24 hours. After the reaction for 24 hours, the cells were washed with FBS & Phenol red-free media (RPMI), and then 100 μL of FBS & Phenol red-free media (RPMI) was added again. After light irradiation at 10 mW/cm^2 over time, the cells were washed with FBS & Phenol red-free media (RPMI), and 100 μL of FBS & Phenol red-free media (RPMI) was added again. 10 μL of 3-(4,5-dimethylthiazol-2-yl)-2,5-diphenyltetrazolium bromide (MTT; Cell Biolabs Inc., USA; final concentration: 1×) was added, followed by reaction at 37° C. for 4 hours. 100 μL of a supernatant was removed, and 100 μL of DMSO (Sigma-Aldrich., USA) was added, followed by reaction for 10 minutes. The colorimetric change of MTT according to a protein type treated to the cells and light irradiation time was confirmed, and then cell viability was confirmed by measuring the absorbance intensity at 570 nm using a plate reader.

MCF-7 cells [3] = test: MTT colorimetric change and cell viability after reaction with Co-h substrate; conditions: MCF-7, protein 10 μM 24 hours, Co-h 150 μM, without light irradiation
Protocol: MCF-7 cells were seeded at 5×10^5 cells/mL in a 96-well plate (SPL Cell Culture Plate, 96 well (SPL, Cat #30096)), and cultured at 37° C. for 24 hours (overnight).
After the culture for 24 hours, the cells were washed with FBS & Phenol red-free media (RPMI), and 100 μL of an FBS-free medium containing the purified protein (final concentration: 10 μM) was added, followed by reaction at 37° C. for 24 hours.
After the reaction for 24 hours, the cells were washed with FBS & Phenol red-free media (RPMI), and then 100 μL of FBS & Phenol red-free media (RPMI) containing a Co-h substrate solution (final concentration: 150 μM) was added. The cells were washed with FBS & Phenol red-free media (RPMI), and 100 μL of fresh FBS & Phenol red-free media (RPMI) were then added.
10 μL of 3-(4,5-dimethylthiazol-2-yl)-2,5-diphenyltetrazolium bromide (MTT) (final concentration: 1×) was added, followed by reaction at 37° C. for 4 hours. After 100 μL of a supernatant was removed, 100 μL of DMSO was added, followed by reaction for 10 minutes. The colorimetric change of MTT according to a protein type treated to the cells and the light irradiation time was checked, and then cell viability was confirmed by measuring the absorbance intensity at 570 nm using a plate reader.
MTT is an assay for measuring cell proliferation or live cells through the presence of blue-violet insoluble […] in the mitochondria of the live cells, where it has been reduced from a yellow soluble substrate, MTT tetrazolium, by the action of a dehydrogenase.

Molecule | cell death by staining (SYTOX Green or EthD-1 dead cells, DAPI live cells) (MCF-7 cells [1]) | cell viability / colorimetric change of MTT with light irradiation time (MCF-7 cells [2]) | cell viability / colorimetric change of MTT with reaction time with Co-h (MCF-7 cells [3])
RLuc8.6-KR: fusion protein of RLuc8.6 and KillerRed without lead peptide, 69 kDa (protein, pRSET-RLuc8.6-KillerRed) MRGSHHHHHHGMASMTGGQQMGRDLYDDDDKDPMASKVYDPEQRKRMITGPQWWARCKQMNVLDSFINYYDSEKHAENAVIFLHGNATSSYLWRHVVPHIEPVARCIIPDLIGMGKSGKSGNGSYRLLDHYKYLTAWFELLNLPKKIIFVGHDWGSALAFHYAYEHQDRIKAIVHMESVVDVIESWMGWPDIEEELALIKSEEGEKMVLENNFFVETLLPSKIMRKLEPEEFAAYLEPFKEKGEVRRPTLSWPREIPLVKGGKPDVVQIVRNYNAYLRASDDLPKLFIESDPGFFYNAIVEGAKKFPNTEFVKVKGLHFLQEDAPDEMGKYIKSFVERVLKNEQEFGGGMLCCMRRTKQVEKNDEDQKISEGGPALFQSDMTFKIFIDGEVNGQKFTIVADGSSKFPHGDFNVHAVCETGKLPMSWKPICHLIQYGEPFFARYPDGISHFAQECFPEGLSIDRTVRFENDGTMTSHHTYELDDTCVVSRITVNCDGFQPDGPIMRDQLVDILPNETHMFPHGPNAVRQLAFIGFTTADGGLMMGHFDSKMTFNGSRAIEIPGPHFVTIITKQMRDTSDKRDHVCQREVAYAHSVPRITSAIGSDED | stained with DAPI | alive | the staining becomes pink
RLuc8.6-KR-LP: fusion protein of RLuc8.6, KillerRed and lead peptide WLEAAYQRFL, 71 kDa (protein, pRSET-RLuc8.6-KillerRed-Lead peptide) MRGSHHHHHHGMASMTGGQQMGRDLYDDDDKDPMASKVYDPEQRKRMITGPQWWARCKQMNVLDSFINYYDSEKHAENAVIFLHGNATSSYLWRHVVPHIEPVARCIIPDLIGMGKSGKSGNGSYRLLDHYKYLTAWFELLNLPKKIIFVGHDWGSALAFHYAYEHQDRIKAIVHMESVVDVIESWMGWPDIEEELALIKSEEGEKMVLENNFFVETLLPSKIMRKLEPEEFAAYLEPFKEKGEVRRPTLSWPREIPLVKGGKPDVVQIVRNYNAYLRASDDLPKLFIESDPGFFYNAIVEGAKKFPNTEFVKVKGLHFLQEDAPDEMGKYIKSFVERVLKNEQEFGGGMLCCMRRTKQVEKNDEDQKISEGGPALFQSDMTFKIFIDGEVNGQKFTIVADGSSKFPHGDFNVHAVCETGKLPMSWKPICHLIQYGEPFFARYPDGISHFAQECFPEGLSIDRTVRFENDGTMTSHHTYELDDTCVVSRITVNCDGFQPDGPIMRDQLVDILPNETHMFPHGPNAVRQLAFIGFTTADGGLMMGHFDSKMTFNGSRAIEIPGPHFVTIITKQMRDTSDKRDHVCQREVAYAHSVPRITSAIGSDEDGGGWLEAAYQRFL | stained with SYTOX Green or EthD-1; also recorded: the number of dead cells increases | killed; also recorded: cell viability decreased | die and cell viability is reduced
KR: first protein KillerRed, ROS-generating protein (superoxide), expressed from pRSET-KillerRed, 31 kDa (protein, pRSET-KillerRed, first protein KillerRed, ROS-generating protein (superoxide), expressed from pRSET-KillerRed, 31 kDa) MRGSHHHHHHGMASMTGGQQMGRDLYDDDDKDPMLCCMRRTKQVEKNDEDQKISEGGPALFQSDMTFKIFIDGEVNGQKFTIVADGSSKFPHGDFNVHAVCETGKLPMSWKPICHLIQYGEPFFARYPDGISHFAQECFPEGLSIDRTVRFENDGTMTSHHTYELDDTCVVSRITVNCDGFQPDGPIMRDQLVDILPNETHMFPHGPNAVRQLAFIGFTTADGGLMMGHFDSKMTFNGSRAIEIPGPHFVTIITKQMRDTSDKRDHVCQREVAYAHSVPRITSAIGSDED | stained with DAPI | alive | the staining becomes pink
